For this assay, the target named is T1, Recombinant CD71-ECD immobilised on the CM5 chip (SPR) (human, UniProt P02786 89-760).
T1 construct: Human transferrin receptor protein 1 (CD71), extracellular domain; source: recombinant
Nature of the assay: SPR; BIAcore S200; CD71-ECD coupled to CM5 chip (EDC/NHS, 10 mM NaAc pH 4.5); analyte PvMSP1P-19 6.25, 12.5, 25, 50 μM at 30 μl/min; 1:1 Langmuir model; apparent KD. As to conditions: both partners purified.

T1 sequence (P02786 89-760): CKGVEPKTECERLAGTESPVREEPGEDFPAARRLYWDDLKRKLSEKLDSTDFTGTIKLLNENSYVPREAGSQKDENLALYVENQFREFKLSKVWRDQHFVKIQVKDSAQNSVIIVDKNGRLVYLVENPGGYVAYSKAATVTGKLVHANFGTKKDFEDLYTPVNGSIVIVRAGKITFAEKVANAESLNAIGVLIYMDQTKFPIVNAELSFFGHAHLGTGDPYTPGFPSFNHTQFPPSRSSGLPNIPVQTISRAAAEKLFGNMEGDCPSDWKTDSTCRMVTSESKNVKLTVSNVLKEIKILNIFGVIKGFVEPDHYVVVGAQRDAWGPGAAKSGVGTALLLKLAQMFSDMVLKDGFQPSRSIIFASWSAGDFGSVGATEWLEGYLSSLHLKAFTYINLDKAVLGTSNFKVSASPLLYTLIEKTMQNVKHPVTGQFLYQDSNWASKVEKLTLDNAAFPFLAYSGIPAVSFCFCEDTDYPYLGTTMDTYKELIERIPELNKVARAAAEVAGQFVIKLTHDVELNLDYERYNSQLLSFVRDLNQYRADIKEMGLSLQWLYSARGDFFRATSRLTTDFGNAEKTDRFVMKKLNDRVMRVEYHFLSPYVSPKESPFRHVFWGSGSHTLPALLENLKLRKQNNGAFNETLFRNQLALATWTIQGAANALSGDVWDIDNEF

B1: Plasmodium vivax merozoite surface protein 1 paralog, 19-kDa C-terminal region (PvMSP1P-19), Trx-His-Flag-tagged (domain or fragment)
chain: DRVEKNCRNRKCPLNSFCFIQTINEECLCLLNYSMVGEKCILNEQNSCAVKNGGCDLKATCELKKNRVNCICPKGTKPMHEGVVCS
notes: P. vivax merozoite surface protein 1 paralog (PvMSP1P, 1854 aa), PlasmoDB PVX_099975, aa 1749-1834 (two EGF-like domains); Migrates at ~36 kDa; also called Trx-His-PvMSP1P-19; His-MSP1P-19; source: E. coli BL21 (DE3) and SHuffle T7 E. coli, pET32a, soluble, purified by Talen Biotech
Consider B1, for which the Kd was 35.5 µM.

The record behind these values is publication PMC11107369, “The Plasmodium vivax MSP1P-19 is involved in binding of reticulocytes through interactions with the membrane proteins band3 and CD71” (The Journal of Biological Chemistry, 2024).
